These results are taken from the RNAGym collection of RNA variant scans (doi:10.1093/molbev/msab373).

First the molecules themselves.
B1: Azoarcus group I ribozyme (parent)
chain: GUGCCUUGCGCCGGGAAACCACGCAAGGGAUGGUGUCAAAUUCGGCGAAACCUAAGCGCCCGCCCGGGCGUAUGGCAACGCCGAGCCAAGCUUCGGCGCCUGCGCCGAUGAAGGUGUAGAGACUAGACGGCACCCACCUAAGGCAAACGCUAUGGUGAAGGCAUAGUCCAGGGAGUGGCGAAAGUCACACAAACCGG

This data set covers variants of B1. In words: reverse-splicing fitness (ratio to wild type); higher = more active; in vitro selection; Mg2+ level not given. A digest of the protocol: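 An in vitro group I ribozyme library with randomized positions was T7-transcribed and gel-purified. In triplicate, 10 pmol RNA in EPPS pH 7.5 was reacted with 50 pmoles of a 30-nt RNA substrate for 1 h at 37 °C across several added MgCl2 levels (1–48 mM), then stopped with EDTA. Products were reverse transcribed from a substrate-complementary primer, PCR-amplified and sequenced (HiSeq 4000). Fitness is a variant's read proportion after selection over that before, normalised to wild type.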
In the case of C82G A111G A120G C169U U176A, the reverse-splicing fitness amounted to 0.0199.
Take C82G A111G A120G C169U U176C: the reverse-splicing fitness came out at 0.0198.
Regarding C82G A111G A120G C169U U176G, the reverse-splicing fitness is 0.00595.
To C82G A111G A120G A145G C150A C169A belongs 0.0113.
For C82G A111G A120G A145G C150A C169G the value was 0.0102.
To C82G A111G A120G A145G C150A C169U belongs 0.0102; to C82G A111G A120G A145U C150A C169A U176A, 0.0175.
With C82G A111G A120G A145U C150A C169A U176C, the reverse-splicing fitness is 0.0159.
As to C82G A111G A120G A145U C150A C169A U176G, the reverse-splicing fitness is 0.00495.
Turning to C82G A111G A120G A145U C169G U176C, the reverse-splicing fitness is 0.0187.
For C82G A111G A120G A145U C169G U176G the value was 0.0044; for C82G A111G A120G A145U C169G U176A, 0.0149; for C82G A111G A120G C150A, 0.0101.
To C82G A111G A120G C150U belongs 0.0156; to C82G A111G A120G C150G, 0.00784; to C82G A111G A120U A145C C150G C169A, 0.00256.
To C82G A111G A120U A145C C150G C169U belongs 0.00296.
Regarding C82G A111G A120U A145C C150G C169G, the reverse-splicing fitness is 0.0027.
To C82G A111G A120U A145G C150A C169G U176G belongs 0.00219.
To C82G A111G A120U A145G C150A C169G U176A belongs 0.0128; to C82G A111G A120U A145G C150A C169G U176C, 0.00625; to C82G A111G A120G A145U C150G C169U U176C, 0.0149.
To C82G A111G A120G A145U C150G C169U U176A belongs 0.0117.
In the case of C82G A111G A120G A145U C150G C169U U176G, the reverse-splicing fitness worked out at 0.00523.
To C82G A111G A120G A145C C150G C169A U176C belongs 0.009.
To C82G A111G A120G A145C C150G C169A U176G belongs 0.00562.
To C82G A111G A120G A145C C150G C169A U176A belongs 0.0102; to C82G A111G A120U A145C C150A C169U U176A, 0.00266.
With C82G A111G A120U A145C C150A C169U U176G, the reverse-splicing fitness was 0.0019.
For C82G A111G A120U A145C C150A C169U U176C the value was 0.00238; for C82G A111G A120U A145C C150A C169A U176G, 0.00204.
For C82G A111G A120U A145C C150A C169A U176C the value was 0.00213.
To C82G A111G A120U A145C C150A C169A U176A belongs 0.00209; to C82G A111G A120G A145G U176G, 0.00696; to C82G A111G A120G A145G U176C, 0.0204.
C82G A111G A120G A145G U176A: the reverse-splicing fitness is 0.0129.
With C82G A111G A120G C150U C169G, the reverse-splicing fitness was determined as 0.0154.
For C82G A111G A120G C150U C169U the value was 0.0114; for C82G A111G A120G C150U C169A, 0.0118; for C82G A111G A120U, 0.0726.
For C82G A111G A120G A145U the value was 0.0198.
Consider C82G A111G A120G A145G, for which the reverse-splicing fitness worked out at 0.0179.
As for C82G A111G A120U A145G C150A C169U U176G, the reverse-splicing fitness was found to be 0.00259.
For C82G A111G A120U A145G C150A C169U U176C the value was 0.00452.
For C82G A111G A120U A145G C150A C169U U176A the value was 0.00563; for C82G A111G A120G A145U C150G U176G, 0.00436; for C82G A111G A120G A145U C150G U176C, 0.0158.
Take C82G A111G A120G A145U C150G U176A: the reverse-splicing fitness stood at 0.00801.
For C82G A111G A120G C150U C169G U176G the value was 0.00549.
For C82G A111G A120G C150U C169G U176A the value was 0.0182.
As for C82G A111G A120G C150U C169G U176C, the reverse-splicing fitness worked out at 0.0206.
For the variant C82G A111G A120G A145G C150G, the reverse-splicing fitness stood at 0.00815.
To C82G A111G A120G A145G C150A belongs 0.0101; to C82G A111G A120G A145G C150U, 0.0167.
For C82G A111G A120G A145C C150G C169U U176G the value was 0.00615.
For C82G A111G A120G A145C C150G C169U U176C the value was 0.0147; for C82G A111G A120G A145C C150G C169U U176A, 0.0139; for C82G A111G A120G C150G C169U U176A, 0.0119.
With C82G A111G A120G C150G C169U U176G, the reverse-splicing fitness came out at 0.00715.
Regarding C82G A111G A120G C150G C169U U176C, the reverse-splicing fitness worked out at 0.0158.
For C82G A111G A120G A145U C150G C169A the value was 0.01.
To C82G A111G A120G A145U C150G C169U belongs 0.00943; to C82G A111G A120G A145U C150G C169G, 0.00827.
For C82G A111G A120G A145U C150U C169G U176A the value was 0.0161; for C82G A111G A120G A145U C150U C169G U176G, 0.00518; for C82G A111G A120G A145U C150U C169G U176C, 0.0179.
Regarding C82G A111G A120U A145C, the reverse-splicing fitness was found to be 0.0668.
C82G A111G A120U A145G: the reverse-splicing fitness was determined as 0.0663.
For C82G A111G A120U A145G C150A U176C the value was 0.00919; for C82G A111G A120U A145G C150A U176A, 0.00897.
To C82G A111G A120U A145G C150A U176G belongs 0.00391; to C82G A111G A120G A145U C169A U176A, 0.0151.
To C82G A111G A120G A145U C169A U176G belongs 0.00446.
For C82G A111G A120G A145U C169A U176C, the reverse-splicing fitness is 0.0152.
Consider C82G A111G A120G C150G C169A U176G, for which the reverse-splicing fitness came to 0.00685.
With C82G A111G A120G C150G C169A U176A, the reverse-splicing fitness amounted to 0.0118.
To C82G A111G A120G C150G C169A U176C belongs 0.0135.
Take C82G A111G A120G A145G C150A C169U U176A: the reverse-splicing fitness is 0.0177.
For C82G A111G A120G A145G C150A C169U U176C the value was 0.0177.
For C82G A111G A120G A145G C150A C169U U176G the value was 0.00809.
For C82G A111G A120G A145G C150U C169U U176A the value was 0.0177; for C82G A111G A120G A145G C150U C169U U176G, 0.00668.
As to C82G A111G A120G A145G C150U C169U U176C, the reverse-splicing fitness was 0.0177.
